Data: publication PMC5966431
Values belong to the substance of their own block, whether it stands above or below them.

Legend:
Experiment in all cases: SEC; Size-exclusion chromatography of the purified His6-tagged recombinant proteins. Column and buffer are not told for these proteins. Dimerization was not detected consistently under the authors' conditions.
[1] = biological target: Valg4460 (PL17 family polysaccharide lyase, subfamily 2, Vibrio alginolyticus) (Vibrio alginolyticus)
[2] = biological target: Pedsa1196 (PL17 family alginate lyase, subfamily 2, Pedobacter saltans) (Pedobacter saltans)
[3] = biological target: Mase04140 (PL17 family alginate lyase, subfamily 2, Alteromonas macleodii) (Alteromonas macleodii)

stoichiometry N [1]: 2
Substance: Valg4460 (PL17 family polysaccharide lyase, subfamily 2, Vibrio alginolyticus) (enzyme)

stoichiometry N [2]: 2
Substance: Pedsa1196 (PL17 family alginate lyase, subfamily 2, Pedobacter saltans) (enzyme)

stoichiometry N [3]: 2
Substance: Mase04140 (PL17 family alginate lyase, subfamily 2, Alteromonas macleodii) (enzyme)
